In the supplement of paper PMC9233669:
This sample holds only a part of the variants without activity.

What was measured:
biotinyl-Met-oxazolone = experiment: self-aminoacylation, catalytic enhancement (BMO) (fold over background); higher = more active; k-Seq, kA / k0A0; sequences stand for … in GGGAAUGGAUCCACAUCUACGAAUUC…UUCACUGCAGACUUGACGAAGCUG
Outline: (§1)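 Mutagenized RNA pools with a 21-nt variable region (0.43 μM) reacted with each biotinyl-aminoacyl-oxazolone at 2–1250 μM. Reactions ran in 50 μL HEPES/NaCl/KCl/MgCl2/CaCl2 buffer with 5% acetonitrile, pH 6.9–7.0, for 90 minutes at room temperature. Streptavidin-captured RNA was quantified by triplicate qPCR and Illumina sequencing, and per-sequence fraction reacted was fit to a pseudo-first-order model with 1000 bootstraps. Catalytic enhancement is median kA divided by the uncatalyzed rate, the low-activity peak of a bimodal Gaussian fit.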

biotinyl-Trp-oxazolone = experiment: self-aminoacylation, catalytic enhancement (BWO) (fold over background); higher = more active; k-Seq, kA / k0A0; sequences stand for … in GGGAAUGGAUCCACAUCUACGAAUUC…UUCACUGCAGACUUGACGAAGCUG
Outline: as §1

biotinyl-Phe-oxazolone = experiment: self-aminoacylation, catalytic enhancement (BFO) (fold over background); higher = more active; k-Seq, kA / k0A0; sequences stand for … in GGGAAUGGAUCCACAUCUACGAAUUC…UUCACUGCAGACUUGACGAAGCUG
Outline: as §1

biotinyl-Leu-oxazolone = experiment: self-aminoacylation, catalytic enhancement (BLO) (fold over background); higher = more active; k-Seq, kA / k0A0; sequences stand for … in GGGAAUGGAUCCACAUCUACGAAUUC…UUCACUGCAGACUUGACGAAGCUG
Outline: as §1

biotinyl-Val-oxazolone = experiment: self-aminoacylation, catalytic enhancement (BVO) (fold over background); higher = more active; k-Seq, kA / k0A0; sequences stand for … in GGGAAUGGAUCCACAUCUACGAAUUC…UUCACUGCAGACUUGACGAAGCUG
Outline: as §1

biotinyl-Ile-oxazolone = experiment: self-aminoacylation, catalytic enhancement (BIO) (fold over background); higher = more active; k-Seq, kA / k0A0; sequences stand for … in GGGAAUGGAUCCACAUCUACGAAUUC…UUCACUGCAGACUUGACGAAGCUG
Outline: as §1

Sequence	self-aminoacylation (biotinyl-Met-oxazolone)	self-aminoacylation (biotinyl-Trp-oxazolone)	self-aminoacylation (biotinyl-Phe-oxazolone)	self-aminoacylation (biotinyl-Leu-oxazolone)	self-aminoacylation (biotinyl-Val-oxazolone)	self-aminoacylation (biotinyl-Ile-oxazolone)
AGGUUUGCUAAUAGUCGUAAG [Fam3.1 aminoacylation ribozyme variant]	1.23	7.24	29.2	1.1	1.08	1.22
AGGUUUGCUGAUAGUCGCAAG [Fam3.1 aminoacylation ribozyme variant]	1.53	1.83	2.52	1.83	1.2	1.49
AGUAACCUGGUCAUCGAGUGA [Fam2.1 aminoacylation ribozyme variant]	5.06	4.62	16.8	5.02	3.25	3.32
AGUACCCUGCUCAUCGAGUGA [Fam2.1 aminoacylation ribozyme variant]	2.06	1.88	1.88	1.77	1.28	1.2
AGUACCCUGGGCAUCGAGUGA [Fam2.1 aminoacylation ribozyme variant]	6.28	7.71	47	6.54	3.16	2.96
AGUACCCUGGUCACCGAGUGA [Fam2.1 aminoacylation ribozyme variant]	8.83	11.1	54.5	9.52	4.11	4.52
AGUACCCUGGUCAUAGAGUGA [Fam2.1 aminoacylation ribozyme variant]	4.15	4.67	15.4	4.1	2.48	2.33
AGUACCCUGGUCAUCGAGUGG [Fam2.1 aminoacylation ribozyme variant]	5.15	4.19	6.94	4.23	2.65	2.26
AGUACCCUGGUCAUCGAGUGU [Fam2.1 aminoacylation ribozyme variant]	14.2	11.7	29.9	13.6	5.27	5.14
AGUACCGUGGUCAUCGAGUGA [Fam2.1 aminoacylation ribozyme variant]	5.19	5.99	24.1	5.87	3.39	3.61
AGUACCUUGGUCAUCGAGUGA [Fam2.1 aminoacylation ribozyme variant]	6.27	8.17	19	6.37	4.07	4.3
AGUAGCCUGGUCAUCGAGUGA [Fam2.1 aminoacylation ribozyme variant]	7.32	8.44	37.9	7.91	4.85	4.84
AGUCACCUAGGACAUCGGGUG [Fam2.2 aminoacylation ribozyme variant]	4.24	6.31	26.6	4.11	5.02	4.13
AGUCACCUAGGUCAUCGGGUU [Fam2.2 aminoacylation ribozyme variant]	5.25	4.8	21.7	7.09	4.18	4.28
AGUCACCUAGGUCUUCGGGUG [Fam2.2 aminoacylation ribozyme variant]	6.75	8.99	56.4	8.46	6.48	6.51
AGUCACCUAUGUCAUCGGGUG [Fam2.2 aminoacylation ribozyme variant]	4.37	4.85	31.8	4.74	3.19	3.74
AGUCACCUGGGUCAUCGGGUG [Fam2.2 aminoacylation ribozyme variant]	3.98	5.64	35.4	4.04	4.96	4.56
AGUCACUUAGGUCAUCGGGUG [Fam2.2 aminoacylation ribozyme variant]	5.12	5.93	46.1	6.96	4.36	4.65
AGUCGCCUAGGUCAUCGGGUG [Fam2.2 aminoacylation ribozyme variant]	6.31	9.01	49	7.99	5.42	5.29
AUAAACCUAGGUCAUCGGGUG [Fam2.2 aminoacylation ribozyme variant]	3.29	3.73	20.4	4.39	2.43	2.57
AUAACCCUGAUCAUCGAGUGA [Fam2.1 aminoacylation ribozyme variant]	6.16	8.47	20.9	6.46	3.27	2.79
AUAACCCUGGUCAGCGAGUGA [Fam2.1 aminoacylation ribozyme variant]	4.66	6.19	25.1	5.25	2.92	3.52
AUAACCCUGGUCAUCGAGUGC [Fam2.1 aminoacylation ribozyme variant]	1.96	1.89	4.44	2.44	1.42	1.33
AUAACCCUGGUCAUUGAGUGA [Fam2.1 aminoacylation ribozyme variant]	8.67	10.2	36.7	8.57	3.82	3.89
AUAACCCUGGUCCUCGAGUGA [Fam2.1 aminoacylation ribozyme variant]	2.77	3.38	13.1	3.52	1.79	1.91
AUAACCCUGGUUAUCGAGUGA [Fam2.1 aminoacylation ribozyme variant]	8.37	8.28	38.8	8.11	3.44	3.74

Sequence	self-aminoacylation (biotinyl-Met-oxazolone)	self-aminoacylation (biotinyl-Trp-oxazolone)	self-aminoacylation (biotinyl-Phe-oxazolone)	self-aminoacylation (biotinyl-Leu-oxazolone)	self-aminoacylation (biotinyl-Val-oxazolone)	self-aminoacylation (biotinyl-Ile-oxazolone)
AUAACCUUGGUCAUCGAGUGA [Fam2.1 aminoacylation ribozyme variant]	5.95	7.25	27.1	6.06	3.3	2.94
AUAACUCUGGUCAUCGAGUGA [Fam2.1 aminoacylation ribozyme variant]	5.54	6.33	19.5	5.36	3.04	3.06
AUACACCCAGGUCAUCGGGUG [Fam2.2 aminoacylation ribozyme variant]	5.29	5.99	32.7	4.64	3.3	3.78
AUACACCUAAGUCAUCGGGUG [Fam2.2 aminoacylation ribozyme variant]	4.44	4.14	28.8	5.83	2.91	3.47
AUACACCUAGAUCAUCGGGUG [Fam2.2 aminoacylation ribozyme variant]	3	3.43	7.92	2.73	1.69	1.85
AUACACCUAGGACAUCGGGUG [Fam2.2 aminoacylation ribozyme variant]	2.98	5.32	14.1	2.82	2.79	2.73
AUACACCUAGGUCAUCGGAUG [Fam2.2 aminoacylation ribozyme variant]	0.978	0.96	0.387	0.994	0.946	1.03
AUACACCUAGGUCAUCUGGUG [Fam2.2 aminoacylation ribozyme variant]	1.56	1.41	4.68	1.68	1.23	1.4
AUACACCUAUGUCAUCGGGUG [Fam2.2 aminoacylation ribozyme variant]	3.42	3.58	17.3	3.86	2.52	2.46
AUACACCUCGGUCAUCGGGUG [Fam2.2 aminoacylation ribozyme variant]	3.08	3.09	23.3	3.14	3.18	2.82
AUACGCCUAGGUCAUCGGGUG [Fam2.2 aminoacylation ribozyme variant]	7.57	7.38	36	7.77	4.07	4.85
AUACUUCAAACAAUCAGUCUG [Fam1A.1 aminoacylation ribozyme variant]	0.823	4.24	9.06	0.979	1.02	0.975
AUACUUCAAACAAUCGGUAUG [Fam1A.1 aminoacylation ribozyme variant]	0.732	2.3	3.52	0.732	0.744	0.925
AUACUUCAAAUAAUCGGUCUG [Fam1A.1 aminoacylation ribozyme variant]	0.965	4.17	5.26	0.998	0.877	0.992
AUACUUCAAUCAAUCGGUCUG [Fam1A.1 aminoacylation ribozyme variant]	1.19	6.62	8.53	1.33	1.06	1.11
AUACUUCCAACAAUCGGUCUG [Fam1A.1 aminoacylation ribozyme variant]	0.705	0.721	0.856	0.743	0.727	0.782
AUAGACCUAGGUCAUCGGGUG [Fam2.2 aminoacylation ribozyme variant]	2.93	4.2	19.5	3.85	2.65	2.59
AUAUACCUAGGUCAUCGGGUG [Fam2.2 aminoacylation ribozyme variant]	3.97	4.16	25.9	5.38	2.74	2.65
AUCAACCUGGUCAUCGAGUGA [Fam2.1 aminoacylation ribozyme variant]	10	9.87	43.5	11.9	4.81	5.12
AUCACCCUGAUCAUCGAGUGA [Fam2.1 aminoacylation ribozyme variant]	10.8	10.9	62.3	10.2	4.32	4.86
AUCACCCUGGUCAACGAGUGA [Fam2.1 aminoacylation ribozyme variant]	9.31	10.6	64.3	10.6	4.69	4.43
AUCACCCUGGUCACCGAGUGA [Fam2.1 aminoacylation ribozyme variant]	17.5	13.2	96.6	15.4	5.92	6.34
AUCACCCUGGUCAUCGAAUGA [Fam2.1 aminoacylation ribozyme variant]	1.13	0.777	0.93	1.29	1.41	1.26
AUCACCGUGGUCAUCGAGUGA [Fam2.1 aminoacylation ribozyme variant]	7.05	7.75	52.5	6.15	4.01	3.99
AUCACGCUGGUCAUCGAGUGA [Fam2.1 aminoacylation ribozyme variant]	6.1	6.96	33.1	5.91	4.4	4.36
